Source: patent US8449872B2, “Polymer conjugates of nesiritide peptides” (priority 2008, dated 2013)
“Also recorded” adds a separate entry of the source. Like-named read-outs stand apart in the source and are kept apart here.

What was measured:
[1] = rat, in vivo, iv
Experimental: (§1) Thirty one (31) adult male Sprague-Dawley rats with indwelling jugular vein and carotid artery catheters (JVC/CAC) (Charles River Labs, Hollister, Calif.) were utilized for this study. […] All animals were food fasted overnight. Prior to dosing, the rats were weighed, the tails and cage cards were labeled for identification and the doses were calculated. Anesthesia was induced and maintained with 3.0-5.0% isoflurane. The JVC and CAC were externalized and flushed with HEP/saline (10 IU/mL HEP/mL saline). The predose sample was collected from the JVC and the catheters were plugged, and labeled to identify the jugular vein and carotid artery. When all of the animals had recovered from anesthesia and the predose samples were processed, the animals were dosed, intravenously (IV) via the JVC using a 1 mL syringe containing the appropriate test article and the dead volume of the catheter was flushed with 0.9% saline to ensure the animals received the correct dose.
(§2) Following a single IV dose, blood samples were collected from groups 1A, 2A, 3A and 4A, at 0 (pre-dose collected as described above), 0.03, 0.33, 2.0, 6.0, 12.0 and 72.0 hours and from Groups 1B, 2B, 3B and 4B at 0 (pre-dose collected as described above), 0.17, 1.0, 4.0, 8.0, 24.0 and 48.0 hours via the carotid artery catheter and processed as stated in the protocol. Following the last collection point, the animals were euthanized.
(§3) Concentrations in plasma that were below LLOQ were replaced with zeros prior to generating Tables and PK analysis. In the event that more than half (>50%) of the data points were below zero, mean concentration will not be shown in the figures or used in PK parameters estimation. The following PK parameters were estimated using plasma concentration-time profile of each animal:

[2] = Pharmacokinetic study after a single intravenous dose in rats (noncompartmental analysis of plasma concentrations); details: for Cmax: test article in plasma (non-released PEG-BNP, or native BNP), equivalent protein mass 0.459 mg/kg IV
Experimental: as §1, §2, §3

[3] = non-released PEG-BNP in plasma, 0.459 mg/kg IV, Sprague Dawley rats
[4] = BNP in plasma (released from conjugate or given as native BNP), 0.459 mg/kg IV, rats

| Compound | AUCINF [2, 3] [ng·h/mL] | CL [2, 3] [mL/h/kg] | MRTlast [2, 3] [h] | T½ [2, 3] [h] | Vss [2, 3] [mL/kg] | Cmax ([2]; Sprague Dawley rats) [ng/mL] | also measured |
| --- | --- | --- | --- | --- | --- | --- | --- |
| CC[C@H](C)[C@@H]1NC(=O)[C@H](CCCNC(=N)N)NC(=O)[C@H](CC(=O)O)NC(=O)[C@H](CCSC)NC(=O)[C@H](CCCCN)NC(=O)[C@H](CCCNC(=N)N)NC(=O)CNC(=O)[C@H](Cc2ccccc2)NC(=O)[C@@H](NC(=O)CNC(=O)[C@H](CO)NC(=O)CNC(=O)[C@H](CCC(N)=O)NC(=O)[C@@H](NC(=O)[C@H](CCSC)NC(=O)[C@H](CCCCN)NC(=O)[C@@H]2CCCN2C(=O)[C@@H](N)CO)C(C)C)CSSC[C@@H](C(=O)N[C@@H](CCCCN)C(=O)N[C@H](C(=O)N[C@@H](CC(C)C)C(=O)N[C@@H](CCCN=C(N)N)C(=O)N[C@@H](CCCN=C(N)N)C(=O)N[C@@H](Cc2cnc[nH]2)C(=O)O)C(C)C)NC(=O)CNC(=O)[C@H](CC(C)C)NC(=O)CNC(=O)[C@H](CO)NC(=O)[C@H](CO)NC(=O)[C@H](CO)NC(=O)[C@H](CO)NC1=O [BNP, Nesiritide] | – | – | – | – | – | – | Cmax ([1]; 0.459 mg/kg): 0.00 ng/mL; measurable BNP in plasma (in words) ([2]; following parent BNP administration IV, rats): No measurable plasma concentrations; also recorded: No BNP was measurable |
| ButyrALD-40K-BNP: non-releasable mono-PEG conjugate (N-terminus directed) of BNP-32 with mPEG2-Butyr-ALD 40 kDa | 41300 | 11.1 | 24.0 | 26.1 | 631 | 1410 | peak plasma concentration compared with ButyrALD-10K-BNP (in words) [1]: higher; clearance compared with ButyrALD-10K-BNP (in words) ([2]; non-releasable PEG constructs, IV, rats): lower; half-life compared with ButyrALD-10K-BNP (in words) ([2]; non-releasable PEG constructs, IV, rats, pooled data): longer |
| ButyrALD-10K-BNP: non-releasable mono-PEG conjugate (N-terminus directed) of BNP-32 with mPEG-Butyr-ALD-10K | 96.6 | 4750 | 0.368 | 0.272 | 2270 | 355 | – |
| C2-FMOC-PEG2-40K-BNP: releasable mono-PEG conjugate of BNP-32 made with mPEG2-C2-fmoc-NHS-40K; hydrolysis generates unmodified peptide | – | – | – | – | – | – | Peak concentrations of the conjugate in plasma ([1]; male, Sprague-Dawley): 1300 ng/mL; time of peak concentrations of released BNP [1]: 0.3 h; plasma conjugate concentrations remained above ([1]; 24 h): above 100 ng/mL; AUCINF [2, 4]: 162 ng·h/mL; MRTlast [2, 4]: 1.84 h; Tmax [2, 4]: 19.8 min; half-life of the conjugate in plasma ([2]; intact C2-FMOC-PEG2-40K-BNP in plasma, IV, rats): 15.0 h |
